In patent publication US20190359687A1 (Bayer, published 2019):
Residue numbers refer to the chain shown, from its start. Numbers in names are those of the source.

B1: TPP-5698, Hu6C12-24 Fab variant VL: (S24R, A26S) (Fab, V domains shown)
VH: EVQLVQSGAEVKKPGASVKVSCKASGYTFTTYTIHWVRQAPGQGLEWIGYINPSSDYTRYNPKFKDRVTLTTDKSTSTAYMELRSLRSDDTAVYYCQTGTRDYWGQGTTVTVSS
VL: DIQLTQSPSFLSASVGDRVTITCRASSSVSYIYWFQQKPGKAPKLLIYSTSTLPSGVPSRFSGSGSGTEYTLTISSLQPEDFATYYCHQRNSFPFTFGQGTKLEIKR
notes: Built on the parental Fab TPP-4935
B2: TPP-5699, Hu6C12-24 Fab variant VL: (S49A, P54Q) (Fab, V domains shown)
VH: B1 VH
VL: B1 VL with R24S, S26A, S49A, P54Q
notes: as for B1
B3: TPP-5700, Hu6C12-24 Fab variant VL: (S24R, A26S, F95Y) (Fab, V domains shown)
VH: B1 VH
VL: B1 VL with F95Y
notes: as for B1
B4: TPP-5701, Hu6C12-24 Fab variant VL: (S49A, P54Q, F95Y) (Fab, V domains shown)
VH: B1 VH
VL: B1 VL with R24S, S26A, S49A, P54Q, F95Y
notes: as for B1
B5: TPP-5703, Hu6C12-24 Fab variant VL: (N91S) (Fab, V domains shown)
VH: B1 VH
VL: B1 VL with R24S, S26A, N91S
notes: as for B1
B6: TPP-5704, Hu6C12-24 Fab variant VL: (N91D) (Fab, V domains shown)
VH: B1 VH
VL: B1 VL with R24S, S26A, N91D
notes: as for B1
B7: TPP-5836, Hu6C12-24 Fab variant VL: (S24R, A26S, S49A, P54Q, F95Y); VH: (I48M, L70M, T72R) (Fab, V domains shown)
VH: B1 VH with I48M, L70M, T72R
VL: B1 VL with S49A, P54Q, F95Y
notes: as for B1
B8: TPP-5837, Hu6C12-24 Fab variant VL: (S24R, A26S, S49A, P54Q, F95Y); VH: (I48M, D66G) (Fab, V domains shown)
VH: B1 VH with I48M, D66G
VL: B1 VL with S49A, P54Q, F95Y
notes: as for B1
B9: TPP-5838, Hu6C12-24 Fab variant VL: (S24R, A26S, S49A, P54Q, F95Y); VH: (I48M, D66G, L70M) (Fab, V domains shown)
VH: B1 VH with I48M, D66G, L70M
VL: B1 VL with S49A, P54Q, F95Y
notes: as for B1
B10: TPP-5840, Hu6C12-24 Fab variant VL: (S24R, A26S, S49A, P54Q, F95Y); VH: (L70M, T72R) (Fab, V domains shown)
VH: B1 VH with L70M, T72R
VL: B1 VL with S49A, P54Q, F95Y
notes: as for B1
B11: TPP-5842, Hu6C12-24 Fab variant VL: (S24R, A26S, S49A, P54Q, F95Y); VH: (D66G, L70M, T72R) (Fab, V domains shown)
VH: B1 VH with D66G, L70M, T72R
VL: B1 VL with S49A, P54Q, F95Y
notes: as for B1
B12: TPP-7791, affinity matured 6C12 Fab (Fab, V domains shown)
VH: B1 VH with T33A, I48M, D56G, D66H, L70M, T72R, Q97W
VL: DIQLTQSPSFLSASVGDRVTITCRASSSVRYIYWFQQKPGKAPKLLIYATSTLRSGVPSRFSGSGSGTEYTLTISSLQPEDFATYYCHQRNSFPYTFGQGTKLEIK
notes: Tested as Fab

These binders were tested against T1, recombinant human glycophorin A ectodomain protein (human, UniProt P02724 20-91) (assay: ELISA, Fab on coated recombinant human GPA ectodomain).
T1 construct: 72 amino acids of the extracellular region; also called Hu-rec GPA
T1 sequence: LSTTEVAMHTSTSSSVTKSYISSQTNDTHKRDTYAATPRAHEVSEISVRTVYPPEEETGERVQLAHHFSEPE

Binder	binding in ELISA relative to parental Fab
B1	1.7 relative to parental Fab
B2	3.2 relative to parental Fab
B3	2.4 relative to parental Fab
B4	3.9 relative to parental Fab
B5	1.1 relative to parental Fab
B6	1.1 relative to parental Fab
B7	4.1 relative to parental Fab
B8	4.5 relative to parental Fab
B9	4.7 relative to parental Fab
B10	4.2 relative to parental Fab
B11	4.7 relative to parental Fab

The binders below were run against T2, Cynomolgus monkey recombinant glycophorin A ectodomain (Cynomolgus monkey) (assay: ELISA, Fab on coated recombinant cyno GPA ectodomain).
T2 construct: extracellular domain

Binder	binding in ELISA relative to parental Fab
B1	1 relative to parental Fab
B2	0.8 relative to parental Fab
B3	1.2 relative to parental Fab
B4	1 relative to parental Fab
B5	0.9 relative to parental Fab
B6	1 relative to parental Fab
B7	1 relative to parental Fab
B8	1.1 relative to parental Fab
B9	1.1 relative to parental Fab
B10	1 relative to parental Fab
B11	1.1 relative to parental Fab

These binders were tested against T3, human glycophorin A on human red blood cells or red blood cell membranes (human, UniProt P02724 20-150) (assay: ELISA, Fab on coated human RBC membranes).
T3 construct: whole, on cells; also called hRBC; human RBC membranes
T3 sequence (looked up): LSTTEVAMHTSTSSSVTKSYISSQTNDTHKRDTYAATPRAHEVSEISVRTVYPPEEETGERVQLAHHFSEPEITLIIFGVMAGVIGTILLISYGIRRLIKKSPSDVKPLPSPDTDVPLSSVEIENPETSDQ
Protocol: These membranes are prepared by first isolating red blood cells from citrated whole blood. Citrated whole blood is layered on to Ficol and centrifuged at low speed for 20 minutes to pellet the red blood cells. The supernatant containing plasma and other blood cells is discarded and the red blood cell pellet is subsequently washed 3 times in 10 cell volumes of phosphate buffered saline (PBS). A 10 ml pellet of purified red blood cells is resuspended in 30 ml of cold low osmorality 20 mM phosphate buffer (pH7.4) and incubated for 30 mins to break open the RBC. After Centrifugation at 10,000 rpm for 30 min at 5° C. the hemoglobin containing supernatant is discarded. To the membrane pellet another 30 ml of 20 mM phosphate buffer is added and the sample centrifuged again at 10,000 rpm for 30 min at 5° C. to pellet the membrane fraction. This wash and centrifugation step is repeated another 4 times. The red blood cell membranes are then resuspended in 20 mL of PBS to achieve an equivalent of approximately 2.5E9 cells/mL and stored frozen at −20° C. Binding of antibodies to RBC ghost can be measured by ELISA in which the RBC ghost suspension (5×10⁶ in 100 ul PBS) was added to each well of flat bottom 96-well ELISA microtiter plates (2HB, Immunolon) and the plates incubated overnight at 4° C. The plates were blocked with Starting blocking buffer (Thermo Fisher) for 2 hours at room temperature (RT). Antibodies or other test molecules were added to each well and incubated for 1.5 hours at RT. After 4 washes 100 ul of an appropriate detection antibody was added to each well and incubated for 1 hour at RT. After 4 washes the detection antibody was measured using appropriate detection reagents.

Binder	binding in ELISA relative to parental Fab
B1	0.6 relative to parental Fab
B2	3.1 relative to parental Fab
B3	2.5 relative to parental Fab
B4	4.7 relative to parental Fab
B5	0.7 relative to parental Fab
B6	0.9 relative to parental Fab
B7	4.7 relative to parental Fab
B8	9.1 relative to parental Fab
B9	9.3 relative to parental Fab
B10	6 relative to parental Fab
B11	7 relative to parental Fab

What follows are binders tested against T4, native human glycophorin A protein (human, UniProt P02724 20-150) (assay: ELISA, Fab on coated native human GPA).
T4 construct: mature; also called Hu-nat GPA
T4 sequence (looked up): T3 sequence (looked up)

Binder	binding in ELISA relative to parental Fab
B1	1.6 relative to parental Fab
B2	3.8 relative to parental Fab
B3	2.5 relative to parental Fab
B4	4.6 relative to parental Fab
B5	2.1 relative to parental Fab
B6	1 relative to parental Fab
B7	5.1 relative to parental Fab
B8	5.2 relative to parental Fab
B9	5.6 relative to parental Fab
B10	5.3 relative to parental Fab
B11	5.9 relative to parental Fab

What follows are binders tested against T3, human glycophorin A on human red blood … (assay: SPR (Biacore), Fab on human RBC membranes;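 note: human RBC membranes captured on an L1 sensor chip, Fab fragments passed over as analyte, binding kinetics read by surface plasmon resonance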).
Protocol: (§1) Kinetic analysis of the antibody binding to human red blood cell membranes was also performed using surface plasmon resonance (SPR) using a Biacore instrument. In this assay membranes prepared from human red blood cells were attached to a L1 sensor matrix and antibodies were flowed over the RBC membranes.
The binding kinetics of the affinity matured Fab antibodies was also measured.

Binder	binding result
B12	binds

What follows are binders tested against T3, human glycophorin A on human red blood … (assay: SPR (Biacore), Fab over human RBC membranes, 1:1 fit;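 note: human RBC membrane preparations captured on an L1 sensor surface, with antibody passed over them as analyte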).
Protocol: as §1

Binder	Kd [nM]	koff [s⁻¹]	kon [M⁻¹ s⁻¹]
B7	3.6	0.0042	1.2e+06
B9	3.1	0.004	1.3e+06
B10	4.1	0.0046	1.1e+06
B11	3.9	0.0059	1.5e+06
